Assays:
Activin A [1] = biological target: T1, Activin A (human, UniProt P08476 311-426); test: cell-based or functional assay
T1 sequence: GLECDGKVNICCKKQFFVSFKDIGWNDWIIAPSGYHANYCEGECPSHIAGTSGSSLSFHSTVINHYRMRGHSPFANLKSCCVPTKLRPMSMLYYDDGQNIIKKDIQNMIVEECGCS

Activin B [2] = biological target: T2, Activin B (human, UniProt P09529 293-407); test: cell-based or functional assay
T2 chain: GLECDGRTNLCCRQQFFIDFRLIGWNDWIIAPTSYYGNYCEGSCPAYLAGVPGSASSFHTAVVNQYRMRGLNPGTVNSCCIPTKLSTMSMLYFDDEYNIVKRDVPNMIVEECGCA

Activin AB [3] = biological target: T3, Activin AB (human, UniProt P08476 311-426; P09529 293-407); test: cell-based or functional assay
T3 chain 1: T1 sequence
T3 chain 2: T2 chain

Activin AC [4] = biological target: T4, Activin AC (human, UniProt P55103 237-352); test: cell-based or functional assay
T4 sequence 1: T1 sequence
T4 sequence 2: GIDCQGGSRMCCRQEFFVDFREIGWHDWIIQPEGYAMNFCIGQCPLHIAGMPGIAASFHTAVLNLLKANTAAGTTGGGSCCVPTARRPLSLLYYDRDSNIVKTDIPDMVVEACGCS

Activin AB [5] = biological target: T3, Activin AB; test: SPR (Biacore), mAb captured on anti-Fc, Activin AB injected, 25 C
Procedure, shortened: (§1)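 240 s association, 600 s buffer dissociation; ka, kd fitted; KD (M) = kd/ka; t1/2 (min) = ln2/(60*kd).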

Activin AB [6] = biological target: T3, Activin AB; test: SPR (Biacore), mAb captured on anti-Fc, Activin AB injected, 37 C
Procedure, shortened: as §1

Activin AC [7] = biological target: T4, Activin AC; test: SPR (Biacore), mAb captured on anti-Fc, Activin AC injected, 25 C
Procedure, shortened: as §1

Activin AC [8] = biological target: T4, Activin AC; test: SPR (Biacore), mAb captured on anti-Fc, Activin AC injected, 37 C
Procedure, shortened: as §1

Activin A [9] = biological target: T1, Activin A; test: SPR (Biacore 4000), captured on anti-human Fc, 200 nM ligand injected, 37 C
Protocol: (§2) For the binding experiment, a Biacore 4000 instrument was used. […] All Biacore binding studies were performed in HBS-T running buffer (0.01 M HEPES pH 7.4, 0.5 M NaCl, 3 mM EDTA, 0.5 mg/ml bovine serum albumin, 0.05% v/v Surfactant P20). […] All binding measurements were performed at 37° C. […] Over the captured antibody surface was injected the TGF-beta family ligands through concentrations ranging from 3.1 nM to 200 nM.

Activin B [10] = biological target: T2, Activin B; test: as above
Protocol: as §2

Activin AB [11] = biological target: T3, Activin AB; test: as above
Protocol: as §2

Activin AC [12] = biological target: T4, Activin AC; test: as above
Protocol: as §2

hBMP2 = biological target: T5, hBMP2 (human, UniProt P12643 283-396); test: as above
T5 construct: Bought protein; also called BPM2
T5 sequence (P12643 283-396 limits assumed): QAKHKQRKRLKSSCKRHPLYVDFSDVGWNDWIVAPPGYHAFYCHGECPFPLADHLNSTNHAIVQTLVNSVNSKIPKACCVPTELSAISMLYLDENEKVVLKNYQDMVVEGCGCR
Protocol: as §2

hBMP4 = biological target: T6, hBMP4 (human, UniProt P12644 293-408); test: as above
T6 construct: Bought protein
T6 sequence (looked up): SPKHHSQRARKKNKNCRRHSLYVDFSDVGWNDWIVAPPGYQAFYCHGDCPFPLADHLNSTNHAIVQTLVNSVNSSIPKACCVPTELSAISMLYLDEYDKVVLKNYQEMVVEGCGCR
Protocol: as §2

hBMP6 = biological target: T7, hBMP6 (human, UniProt P22004 382-513, limits assumed); test: as above
T7 construct: Bought protein
T7 sequence (looked up): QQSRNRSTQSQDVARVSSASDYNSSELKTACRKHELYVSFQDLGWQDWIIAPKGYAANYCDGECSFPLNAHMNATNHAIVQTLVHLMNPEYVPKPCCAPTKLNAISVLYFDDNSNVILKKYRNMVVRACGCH
Protocol: as §2

hBMP9 = biological target: T8, hBMP9 (human, UniProt Q9UK05 320-429); test: as above
T8 construct: Bought protein
T8 sequence (looked up): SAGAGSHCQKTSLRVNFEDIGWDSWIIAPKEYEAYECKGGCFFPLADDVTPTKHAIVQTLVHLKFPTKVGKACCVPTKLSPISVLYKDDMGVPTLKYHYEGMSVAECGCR
Protocol: as §2

hBMP10 = biological target: T9, hBMP10 (human, UniProt O95393 317-424); test: as above
T9 construct: Bought protein
T9 sequence (looked up): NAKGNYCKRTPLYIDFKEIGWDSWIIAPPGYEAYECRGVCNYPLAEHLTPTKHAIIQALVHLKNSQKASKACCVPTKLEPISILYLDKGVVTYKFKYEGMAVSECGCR
Protocol: as §2

GDF8 = biological target: T10, GDF8 (human, UniProt O14793 267-375); test: as above
T10 construct: Bought (R&D Systems #788-G8); also called hGDF8; growth and differentiation factor-8
Protocol: as §2

GDF11 = biological target: T11, GDF11 (human, UniProt O95390 299-407); test: as above
T11 construct: Bought protein; also called hGDF11
T11 sequence (O95390 299-407 limits assumed): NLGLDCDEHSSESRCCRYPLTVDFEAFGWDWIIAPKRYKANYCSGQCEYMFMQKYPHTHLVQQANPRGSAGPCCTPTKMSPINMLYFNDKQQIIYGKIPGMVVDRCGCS
Protocol: as §2

B1: H4H10429P (antibody, human IgG4, V domains shown)
VH: QVQLVESGGGVVQPGRSLRLSCVASGFTVSSYGIHWVRQAPGKGLEWVSVIWYDGRNKDYADSVKGRFTISRDNSKNTVYLEMKGLRAEDTALYYCARDKTGDFDSWGQGTLVTVSS
VL: DIQMTQSPSSLSASVGDRVTITCRASQNINSFLSWYQQKPGKAPKFLIYDASSIQSGAPSRFSGSGSGTDFTLTISSLQPEDFATYYCQQSYSSPFTFGQGTKLEIK
IC50 [M], inhibition of 100 pM Activin A in A204/CAGAx12-Luc Smad2/3-luciferase bioassay (Activin A [1]): 1.6e-10 M
IC50 [M], inhibition of 50 pM Activin B in A204/CAGAx12-Luc Smad2/3-luciferase bioassay (Activin B [2]): 7.9e-08 M
IC50 [M], inhibition of 30 pM Activin AB in A204/CAGAx12-Luc Smad2/3-luciferase bioassay (Activin AB [3]): 2.9e-10 M
IC50 [M], inhibition of 4 nM Activin AC in A204/CAGAx12-Luc Smad2/3-luciferase bioassay (Activin AC [4]): 5.8e-10 M
50 nM Ag Bound (RU) (Activin AB [5]): 40 RU
Kd (Activin AB [5]): 0.0228 nM
koff (Activin AB [5]): 0.000103 s⁻¹
kon (Activin AB [5]): 4.53e+06 M⁻¹ s⁻¹
t1/2 (Activin AB [5]): 1.86 h
50 nM Ag Bound (RU) (Activin AB [6]): 50 RU
Kd (Activin AB [6]): 0.0755 nM
koff (Activin AB [6]): 0.000488 s⁻¹
kon (Activin AB [6]): 6.47e+06 M⁻¹ s⁻¹
t1/2 (Activin AB [6]): 0.393 h
50 nM Ag Bound (RU) (Activin AC [7]): 28 RU
Kd (Activin AC [7]): 0.0997 nM
koff (Activin AC [7]): 9.1e-05 s⁻¹
kon (Activin AC [7]): 913000 M⁻¹ s⁻¹
t1/2 (Activin AC [7]): 2.12 h
50 nM Ag Bound (RU) (Activin AC [8]): 35.7 RU
Kd (Activin AC [8]): 0.462 nM
koff (Activin AC [8]): 0.00062 s⁻¹
kon (Activin AC [8]): 1.34e+06 M⁻¹ s⁻¹
t1/2 (Activin AC [8]): 0.31 h
binding response (resonance units) for 200 nM ligand (Activin A [9]): 56.8 RU
binding response (resonance units) for 200 nM ligand (Activin B [10]): 51.5 RU
binding response (resonance units) for 200 nM ligand (Activin AB [11]): 76.5 RU
binding response (resonance units) for 200 nM ligand (Activin AC [12]): 43.1 RU
binding response (resonance units) for 200 nM ligand (hBMP2): 3.6 RU
binding response (resonance units) for 200 nM ligand (hBMP4): 1.1 RU
binding response (resonance units) for 200 nM ligand (hBMP6): 4.6 RU
binding response (resonance units) for 200 nM ligand (hBMP9): 33.4 RU
binding response (resonance units) for 200 nM ligand (hBMP10): 32.4 RU
binding response (resonance units) for 200 nM ligand (GDF8): -0.4 RU
binding response (resonance units) for 200 nM ligand (GDF11): 1.6 RU
